# Experimental data reported in patent US20120129159A1 (MIT, published 2012).
# Columns and labels:
# mCherry-FKBP-LAP1 = mCherry-FKBP-LAP1 (UniProt P62942 2-108); test: cell-based or functional assay
# FKBP-LAP1 = FKBP-LAP1 (UniProt P62942 1-108, limits assumed); test: cell-based or functional assay
# FKBP-LAP1, sequence (P62942 other isoform, or with tags, fused parts or gaps limits assumed): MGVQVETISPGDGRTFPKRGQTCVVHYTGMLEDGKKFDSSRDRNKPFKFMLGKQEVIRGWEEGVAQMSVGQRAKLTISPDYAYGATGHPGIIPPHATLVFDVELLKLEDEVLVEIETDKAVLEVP
# FKBP-LAP1, P62942, sequence (P62942 whole entry, looked up): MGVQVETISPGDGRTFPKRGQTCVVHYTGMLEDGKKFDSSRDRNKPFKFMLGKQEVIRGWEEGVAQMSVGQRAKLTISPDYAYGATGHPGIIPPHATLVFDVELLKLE
# mCherry-FKBP-LAP1, sequence (P62942 other isoform, or with tags, fused parts or gaps): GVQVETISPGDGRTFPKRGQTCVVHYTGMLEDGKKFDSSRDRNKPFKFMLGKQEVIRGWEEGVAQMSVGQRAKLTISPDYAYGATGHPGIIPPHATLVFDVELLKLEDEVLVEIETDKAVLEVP
binder,measurement,setting,value
FRB-LplAW37V (other) ILWHEMWHEGLEEASRLYFGERNVKGMFEVLEPLHAMMERGPQTLKETSFNQAYGRDLMEAQEWCRKYMKSGNVKDLTQAWDLYYHVFRRISKSTLRLLISDSYDPWFNLAVEECIFRQMPATQRVLFLVRNADTVVIGRAQNPWKECNTRRMEEDNVRLARRSSGGGAVFHDLGNTCFTFMAGKPEYDKTISTSIVLNALNALGVSAEASGRNDLVVKTVEGDRKVSGSAYRETKDRGFHHGTLLLNADLSRLANYLNPDKKKLAAKGITSVRSRVTNLTELLPGITHEQVCEAITEAFFAHYGERVEAEIISPNKTPDLPNFAETFARQSSWEWNFGQAPAFSHLLDERFTWGGVELHFDVEKGHITRAQVFTDSLNPAPLEALAGRLQGCLYRADMLQQECEALLVDFPEQEKELRELSAWMAGAVR,minimum concentration of mCherry-FKBP-LAP1 required for a signal-to-background ratio >2:1,mCherry-FKBP-LAP1,6 µM
FRB-LplA (other) ILWHEMWHEGLEEASRLYFGERNVKGMFEVLEPLHAMMERGPQTLKETSFNQAYGRDLMEAQEWCRKYMKSGNVKDLTQAWDLYYHVFRRISKSTLRLLISDSYDPWFNLAVEECIFRQMPATQRVLFLWRNADTVVIGRAQNPWKECNTRRMEEDNVRLARRSSGGGAVFHDLGNTCFTFMAGKPEYDKTISTSIVLNALNALGVSAEASGRNDLVVKTVEGDRKVSGSAYRETKDRGFHHGTLLLNADLSRLANYLNPDKKKLAAKGITSVRSRVTNLTELLPGITHEQVCEAITEAFFAHYGERVEAEIISPNKTPDLPNFAETFARQSSWEWNFGQAPAFSHLLDERFTWGGVELHFDVEKGHITRAQVFTDSLNPAPLEALAGRLQGCLYRADMLQQECEALLVDFPEQEKELRELSAWMAGAVR,"+/- rapamycin signal-to-background ratio of lipoylation, anti-lipoic acid immunoblot, purified proteins at 10 µM each",FKBP-LAP1,> 12 ratio (:1)
same,"signal-to-background ratio of lipoylation in COS7 cells (+/- 100 nM rapamycin), cell lysis and immunoblot",FKBP-LAP1,15 ratio (:1)
same,signal-to-noise ratio of lipoylation in COS-7 cells with 3 minutes of lipoic acid treatment,FKBP-LAP1,2.5 ratio (:1)
LplAW37V (protein) STLRLLISDSYDPWFNLAVEECIFRQMPATQRVLFLVRNADTVVIGRAQNPWKECNTRRMEEDNVRLARRSSGGGAVFHDLGNTCFTFMAGKPEYDKTISTSIVLNALNALGVSAEASGRNDLVVKTVEGDRKVSGSAYRETKDRGFHHGTLLLNADLSRLANYLNPDKKKLAAKGITSVRSRVTNLTELLPGITHEQVCEAITEAFFAHYGERVEAEIISPNKTPDLPNFAETFARQSSWEWNFGQAPAFSHLLDERFTWGGVELHFDVEKGHITRAQVFTDSLNPAPLEALAGRLQGCLYRADMLQQECEALLVDFPEQEKELRELSAWMAGAVR,"Km of the enzyme for LAP1 (HPLC assay, ligation of coumarin probe to purified FKBP-LAP1)","FKBP-LAP1, P62942",681 ± 168 µM
